From paper PMC9482650, “Quantitative fragmentomics allow affinity mapping of interactomes” (Nature Communications, 2022)

Experiments:
Assay in all cases: holdup assay
Design in all cases: key: below the threshold = too weak to quantify, mostly under pKd 3.1 to 4
Conditions in all cases: plain residues with an end cap or a label only (N-terminal biotin on a linker: ahx)
IL16_1, Q14005 = target: IL16_1, Q14005
SNTA1, Q13424 = target: T1, SNTA1, Q13424
T1 sequence (Q13424 82-180, limits assumed, looked up): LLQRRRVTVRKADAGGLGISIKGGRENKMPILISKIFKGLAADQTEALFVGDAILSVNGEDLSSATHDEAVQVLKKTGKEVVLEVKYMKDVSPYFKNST

DFNB31_1, Q9P202 = target: T2, DFNB31_1, Q9P202
T2 sequence (Q9P202 135-233, limits assumed, looked up): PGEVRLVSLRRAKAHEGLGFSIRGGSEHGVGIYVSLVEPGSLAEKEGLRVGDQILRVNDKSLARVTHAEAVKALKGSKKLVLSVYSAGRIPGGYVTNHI

SIPA1L2, Q9P2F8 = target: T3, SIPA1L2, Q9P2F8
T3 sequence (Q9P2F8 945-1036, limits assumed, looked up): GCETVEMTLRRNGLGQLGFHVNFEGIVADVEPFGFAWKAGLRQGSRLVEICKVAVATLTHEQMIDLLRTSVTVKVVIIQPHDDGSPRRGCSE

GRIP2_5, Q9C0E4 = target: GRIP2_5, Q9C0E4
GRIP2_5, Q9C0E4, sequence (Q9C0E4 544-642): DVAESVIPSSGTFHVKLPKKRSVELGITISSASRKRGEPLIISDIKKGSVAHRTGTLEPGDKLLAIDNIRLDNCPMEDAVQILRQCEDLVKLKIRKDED

APBA2_2, Q99767 = target: T4, APBA2_2, Q99767
T4 sequence (Q99767 654-744, limits assumed, looked up): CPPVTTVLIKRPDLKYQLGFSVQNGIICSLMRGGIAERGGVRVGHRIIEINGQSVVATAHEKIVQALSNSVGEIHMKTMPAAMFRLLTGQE

DLG4_1, P78352 = target: DLG4_1, P78352
DLG4_1, P78352, sequence (P78352 62-152): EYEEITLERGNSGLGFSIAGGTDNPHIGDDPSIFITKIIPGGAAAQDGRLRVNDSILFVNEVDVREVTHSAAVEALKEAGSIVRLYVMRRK

TJP1_3, Q07157 = target: TJP1_3, Q07157
TJP1_3, Q07157, sequence (Q07157 416-512): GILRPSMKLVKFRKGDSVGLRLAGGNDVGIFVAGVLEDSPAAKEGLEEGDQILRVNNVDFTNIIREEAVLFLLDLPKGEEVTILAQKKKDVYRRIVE

PTPN13_1, Q12923 = target: T5, PTPN13_1, Q12923
T5 sequence (Q12923 1088-1188, limits assumed, looked up): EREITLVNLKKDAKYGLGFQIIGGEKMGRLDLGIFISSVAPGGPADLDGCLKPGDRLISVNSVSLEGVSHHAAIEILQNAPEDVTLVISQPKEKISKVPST

PDZD7_3, Q9H5P4 = target: T6, PDZD7_3, Q9H5P4
T6 sequence (Q9H5P4 857-944, limits assumed, looked up): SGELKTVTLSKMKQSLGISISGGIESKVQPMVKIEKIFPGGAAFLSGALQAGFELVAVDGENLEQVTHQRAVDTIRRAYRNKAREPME

PTPN3, P26045 = target: PTPN3, P26045
PTPN3, P26045, sequence (P26045 505-587): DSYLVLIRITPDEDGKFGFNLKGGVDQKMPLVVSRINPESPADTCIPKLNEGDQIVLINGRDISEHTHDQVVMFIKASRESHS

MAST2, Q6P0Q8 = target: MAST2, Q6P0Q8
MAST2, Q6P0Q8, sequence (Q6P0Q8 1099-1202): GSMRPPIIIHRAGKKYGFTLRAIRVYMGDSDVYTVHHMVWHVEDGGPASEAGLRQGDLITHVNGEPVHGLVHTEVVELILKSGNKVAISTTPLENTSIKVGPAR

DVL3, Q92997 = target: T7, DVL3, Q92997
T7 sequence (Q92997 244-331, limits assumed, looked up): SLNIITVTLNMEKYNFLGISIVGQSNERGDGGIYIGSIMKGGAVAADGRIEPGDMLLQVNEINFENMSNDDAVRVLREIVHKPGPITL

ARHGEF12, Q9NZN5-2 = target: ARHGEF12, Q9NZN5-2
ARHGEF12, Q9NZN5-2, sequence (Q9NZN5 other isoform, or with tags, fused parts or gaps): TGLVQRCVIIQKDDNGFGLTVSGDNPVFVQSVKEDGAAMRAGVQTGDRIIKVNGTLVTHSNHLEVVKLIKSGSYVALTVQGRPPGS

GRIP2_4, Q9C0E4 = target: GRIP2_4, Q9C0E4
GRIP2_4, Q9C0E4, sequence (Q9C0E4 446-548): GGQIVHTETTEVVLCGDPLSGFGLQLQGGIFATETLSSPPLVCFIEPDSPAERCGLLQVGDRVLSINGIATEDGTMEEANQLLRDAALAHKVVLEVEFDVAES

HTRA2, O43464 = target: HTRA2, O43464
HTRA2, O43464, sequence (O43464 355-458): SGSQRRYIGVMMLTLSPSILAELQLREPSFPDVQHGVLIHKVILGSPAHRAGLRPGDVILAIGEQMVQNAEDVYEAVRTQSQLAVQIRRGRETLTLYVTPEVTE

DLG3_1, Q92796 = target: T8, DLG3_1, Q92796
T8 sequence (Q92796 125-227, limits assumed, looked up): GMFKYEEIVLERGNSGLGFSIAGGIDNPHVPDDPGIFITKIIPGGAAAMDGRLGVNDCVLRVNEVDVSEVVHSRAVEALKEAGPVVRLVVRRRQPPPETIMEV

PDLIM1, O00151 = target: PDLIM1, O00151
PDLIM1, O00151, sequence (O00151 1-87): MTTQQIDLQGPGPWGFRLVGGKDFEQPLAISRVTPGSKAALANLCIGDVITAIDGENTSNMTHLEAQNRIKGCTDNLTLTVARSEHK

SHANK1, Q9Y566 = target: T9, SHANK1, Q9Y566
T9 sequence (Q9Y566 658-767, limits assumed, looked up): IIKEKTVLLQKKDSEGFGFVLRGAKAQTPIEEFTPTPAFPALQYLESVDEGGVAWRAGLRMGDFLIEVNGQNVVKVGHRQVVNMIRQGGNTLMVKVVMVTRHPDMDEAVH

DLG4_2, P78352 = target: DLG4_2, P78352
DLG4_2, P78352, sequence (P78352 155-259): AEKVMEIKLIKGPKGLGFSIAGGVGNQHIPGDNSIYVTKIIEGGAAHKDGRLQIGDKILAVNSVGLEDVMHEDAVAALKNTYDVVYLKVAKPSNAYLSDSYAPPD

MAGI1_2, Q96QZ7 = target: MAGI1_2, Q96QZ7
MAGI1_2, Q96QZ7, sequence (Q96QZ7 456-580): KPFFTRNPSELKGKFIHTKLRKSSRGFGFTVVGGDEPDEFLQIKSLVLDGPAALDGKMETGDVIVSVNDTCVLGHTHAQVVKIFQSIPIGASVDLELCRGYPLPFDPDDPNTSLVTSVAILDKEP

MAGI2_4, Q86UL8 = target: MAGI2_4, Q86UL8
MAGI2_4, Q86UL8, sequence (Q86UL8 772-865): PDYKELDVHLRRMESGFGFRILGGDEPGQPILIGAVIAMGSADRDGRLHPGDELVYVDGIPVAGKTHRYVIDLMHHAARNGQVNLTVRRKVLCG

APBA2_1, Q99767 = target: T10, APBA2_1, Q99767
T10 sequence (Q99767 563-664, limits assumed, looked up): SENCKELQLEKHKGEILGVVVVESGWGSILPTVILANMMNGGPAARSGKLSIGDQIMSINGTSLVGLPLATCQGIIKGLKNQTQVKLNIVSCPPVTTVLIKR

TJP1_2, Q07157 = target: TJP1_2, Q07157
TJP1_2, Q07157, sequence (Q07157 181-274): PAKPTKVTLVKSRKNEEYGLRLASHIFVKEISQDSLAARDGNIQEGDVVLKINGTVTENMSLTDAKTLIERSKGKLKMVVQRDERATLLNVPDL

NHERF3_4, Q5T2W1 = target: T11, NHERF3_4, Q5T2W1
T11 sequence (Q5T2W1 373-468, limits assumed, looked up): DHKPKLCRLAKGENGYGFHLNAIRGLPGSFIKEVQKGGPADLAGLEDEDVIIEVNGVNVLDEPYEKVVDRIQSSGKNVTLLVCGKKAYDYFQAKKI

Inadl_9, Q8NI35 = target: Inadl_9, Q8NI35
Inadl_9, Q8NI35, sequence (Q8NI35 1530-1615): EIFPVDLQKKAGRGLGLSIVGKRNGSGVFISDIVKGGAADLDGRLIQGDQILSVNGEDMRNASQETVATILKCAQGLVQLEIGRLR

IL16_1, Q14005, sequence (Q14005 210-306): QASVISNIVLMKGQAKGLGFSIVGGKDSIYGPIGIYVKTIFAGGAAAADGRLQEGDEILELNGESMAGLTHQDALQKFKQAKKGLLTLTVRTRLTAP

Row | Binder | pKd (IL16_1, Q14005) | pKd (SNTA1, Q13424) | pKd (DFNB31_1, Q9P202) | pKd (SIPA1L2, Q9P2F8) | pKd (GRIP2_5, Q9C0E4) | pKd (APBA2_2, Q99767) | pKd (DLG4_1, P78352) | pKd (TJP1_3, Q07157) | pKd (PTPN13_1, Q12923) | pKd (PDZD7_3, Q9H5P4) | pKd (PTPN3, P26045) | pKd (MAST2, Q6P0Q8) | pKd (DVL3, Q92997) | pKd (ARHGEF12, Q9NZN5-2) | pKd (GRIP2_4, Q9C0E4) | pKd (HTRA2, O43464) | pKd (DLG3_1, Q92796) | pKd (PDLIM1, O00151) | pKd (SHANK1, Q9Y566) | pKd (DLG4_2, P78352) | further results
1 | ADENEQVSAV [RAPGEF6, Q8TEU7] | 4.23 | 3.64 | below the threshold | below the threshold | below the threshold | below the threshold | 3.6 | below the threshold | below the threshold | 3.83 | 4.3 | 4.79 | below the threshold | 3.83 | below the threshold | below the threshold | below the threshold | below the threshold | 3.88 | 4.05 | pKd (MAGI1_2, Q96QZ7): 3.83; pKd (MAGI2_4, Q86UL8): below the threshold; pKd (APBA2_1, Q99767): below the threshold; pKd (TJP1_2, Q07157): below the threshold; pKd (NHERF3_4, Q5T2W1): below the threshold; pKd (Inadl_9, Q8NI35): below the threshold
2 | SAPATLSSRA [PDLIM2, Q96JY6] | below the threshold | below the threshold | below the threshold | below the threshold | below the threshold | below the threshold | below the threshold | below the threshold | below the threshold | below the threshold | below the threshold | below the threshold | below the threshold | below the threshold | below the threshold | below the threshold | below the threshold | below the threshold | below the threshold | below the threshold | pKd (MAGI1_2, Q96QZ7): below the threshold; pKd (MAGI2_4, Q86UL8): below the threshold; pKd (APBA2_1, Q99767): below the threshold; pKd (TJP1_2, Q07157): below the threshold; pKd (NHERF3_4, Q5T2W1): below the threshold; pKd (Inadl_9, Q8NI35): below the threshold
3 | PKMKLNETSF [SHKBP1, Q8TBC3] | below the threshold | below the threshold | 3.66 | below the threshold | below the threshold | below the threshold | below the threshold | below the threshold | below the threshold | below the threshold | 4.68 | 4.94 | below the threshold | below the threshold | below the threshold | below the threshold | below the threshold | 3.51 | 4.21 | below the threshold | pKd (MAGI1_2, Q96QZ7): below the threshold; pKd (MAGI2_4, Q86UL8): 3.69; pKd (APBA2_1, Q99767): below the threshold; pKd (TJP1_2, Q07157): below the threshold; pKd (NHERF3_4, Q5T2W1): below the threshold; pKd (Inadl_9, Q8NI35): below the threshold
